This is an account of results in patent US20150374794A1 (Novo Nordisk, published 2015).

Numbered stars: 1 amine (or outer) side, 2 acyl side, 3 side chain; on linkers, the order of the positions; unused ones are H or OH. Square brackets hold non-standard residues; d marks the D form. Side chains are listed from the residue outwards. Ends that are not written are not given here. * marks the point of attachment. C18 diacid = O=C(O)CCCCCCCCCCCCCCCCC(=O)*; γGlu = O=C(O)[C@H](CCC(=O)[*:2])N[*:1]; AEEA = NCCOCCOCC(=O)O; Aib = CC(C)(N)C(=O)O

For assay [1], the target named is human glucagon receptor (human, UniProt P47871 26-477). As to the kind of experiment: cell-based or functional assay.
Assay [2] has as its target human GLP-1 receptor (human, UniProt P43220 24-463). As to the kind of experiment: cell-based or functional assay.

Sequence of human glucagon receptor (P47871 26-477): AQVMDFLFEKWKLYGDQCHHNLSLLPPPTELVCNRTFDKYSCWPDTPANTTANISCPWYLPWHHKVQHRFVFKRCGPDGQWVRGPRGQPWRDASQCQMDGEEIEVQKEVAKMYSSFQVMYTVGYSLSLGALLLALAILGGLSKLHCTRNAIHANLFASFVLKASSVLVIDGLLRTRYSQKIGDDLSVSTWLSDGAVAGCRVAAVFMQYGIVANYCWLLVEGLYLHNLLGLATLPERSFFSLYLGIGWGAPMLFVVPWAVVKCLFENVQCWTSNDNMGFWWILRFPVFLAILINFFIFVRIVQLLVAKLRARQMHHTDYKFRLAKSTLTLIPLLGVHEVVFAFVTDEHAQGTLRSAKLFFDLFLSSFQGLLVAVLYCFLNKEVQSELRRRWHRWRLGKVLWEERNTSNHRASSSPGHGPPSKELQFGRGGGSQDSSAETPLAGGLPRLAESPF

B1: N^ε16-[(4S)-4-carboxy-4-[[(4S)-4-carboxy-4-[[2-[2-[2-[[2-[2-[2-[[(4S)-4-carboxy-4-(17-carboxyheptadecanoylamino)butanoyl]amino]ethoxy]ethoxy]acetyl]amino]ethoxy … (peptide)
peptide: H[Aib]QGTFTSDLSKYLDK([γGlu-γGlu-AEEA-AEEA-γGlu-C18 diacid])RRARDFVQWLLST-NH2
modifications: N-terminus assumed
SMILES: CC(C)C[C@H](NC(=O)[C@H](Cc1ccc(O)cc1)NC(=O)[C@H](CCCCN)NC(=O)[C@H](CO)NC(=O)[C@H](CC(C)C)NC(=O)[C@H](CC(=O)O)NC(=O)[C@H](CO)NC(=O)[C@@H](NC(=O)[C@H](Cc1ccccc1)NC(=O)[C@@H](NC(=O)CNC(=O)[C@H](CCC(N)=O)NC(=O)C(C)(C)NC(=O)[C@@H](N)Cc1c[nH]cn1)[C@@H](C)O)[C@@H](C)O)C(=O)N[C@@H](CC(=O)O)C(=O)N[C@@H](CCCCNC(=O)CC[C@H](NC(=O)CC[C@H](NC(=O)COCCOCCNC(=O)COCCOCCNC(=O)CC[C@H](NC(=O)CCCCCCCCCCCCCCCCC(=O)O)C(=O)O)C(=O)O)C(=O)O)C(=O)N[C@@H](CCCNC(=N)N)C(=O)N[C@@H](CCCNC(=N)N)C(=O)N[C@@H](C)C(=O)N[C@@H](CCCNC(=N)N)C(=O)N[C@@H](CC(=O)O)C(=O)N[C@@H](Cc1ccccc1)C(=O)N[C@H](C(=O)N[C@@H](CCC(N)=O)C(=O)N[C@@H](Cc1c[nH]c2ccccc12)C(=O)N[C@@H](CC(C)C)C(=O)N[C@@H](CC(C)C)C(=O)N[C@@H](CO)C(=O)N[C@H](C(N)=O)[C@@H](C)O)C(C)C
For B1, the “EC50 GlucR, CRE luciferase reporter gene assay in BHK cells” value (“EC50 GlucR” below) in assay [1] worked out at 54 pM. Moreover, the “EC50 GLP-1R, CRE luciferase reporter gene assay in BHK cells” value (“EC50 GLP-1R” below) in assay [2] was 8 pM.

B2: N^α-([Aib2,Leu10,Arg20,Leu27,Ser28]-Glucagonyl)-N{Epsilon}[(4S)-4-carboxy-4-[[(4S)-4-carboxy-4-[[2-[2-[2-[[2-[2-[2-[[(4S)-4-carboxy-4-(17-carboxyheptadecanoylam … (peptide)
peptide: H[Aib]QGTFTSDLSKYLDSRRARDFVQWLLSTK([γGlu-γGlu-AEEA-AEEA-γGlu-C18 diacid])-NH2
modifications: N-terminus assumed
SMILES: CC(C)C[C@H](NC(=O)[C@H](Cc1ccc(O)cc1)NC(=O)[C@H](CCCCN)NC(=O)[C@H](CO)NC(=O)[C@H](CC(C)C)NC(=O)[C@H](CC(=O)O)NC(=O)[C@H](CO)NC(=O)[C@@H](NC(=O)[C@H](Cc1ccccc1)NC(=O)[C@@H](NC(=O)CNC(=O)[C@H](CCC(N)=O)NC(=O)C(C)(C)NC(=O)[C@@H](N)Cc1c[nH]cn1)[C@@H](C)O)[C@@H](C)O)C(=O)N[C@@H](CC(=O)O)C(=O)N[C@@H](CO)C(=O)N[C@@H](CCCNC(=N)N)C(=O)N[C@@H](CCCNC(=N)N)C(=O)N[C@@H](C)C(=O)N[C@@H](CCCNC(=N)N)C(=O)N[C@@H](CC(=O)O)C(=O)N[C@@H](Cc1ccccc1)C(=O)N[C@H](C(=O)N[C@@H](CCC(N)=O)C(=O)N[C@@H](Cc1c[nH]c2ccccc12)C(=O)N[C@@H](CC(C)C)C(=O)N[C@@H](CC(C)C)C(=O)N[C@@H](CO)C(=O)N[C@H](C(=O)N[C@@H](CCCCNC(=O)CC[C@H](NC(=O)CC[C@H](NC(=O)COCCOCCNC(=O)COCCOCCNC(=O)CC[C@H](NC(=O)CCCCCCCCCCCCCCCCC(=O)O)C(=O)O)C(=O)O)C(=O)O)C(N)=O)[C@@H](C)O)C(C)C
As for B2, the “EC50 GlucR” value in assay [1] came to 1210 pM. The “EC50 GLP-1R” value in assay [2] stood at 20 pM.

B3: N^ε29-[(4S)-4-carboxy-4-[[(4S)-4-carboxy-4-[[2-[2-[2-[[2-[2-[2-[[(4S)-4-carboxy-4-(17-carboxyheptadecanoylamino)butanoyl]amino]ethoxy]ethoxy]acetyl]amino]ethoxy … (peptide)
peptide: H[Aib]QGTFTSDLSKYLDSRRARDFVQWLLSK([γGlu-γGlu-AEEA-AEEA-γGlu-C18 diacid])-NH2
modifications: N-terminus assumed
SMILES: CC(C)C[C@H](NC(=O)[C@H](CC(C)C)NC(=O)[C@H](Cc1c[nH]c2ccccc12)NC(=O)[C@H](CCC(N)=O)NC(=O)[C@@H](NC(=O)[C@H](Cc1ccccc1)NC(=O)[C@H](CC(=O)O)NC(=O)[C@H](CCCNC(=N)N)NC(=O)[C@H](C)NC(=O)[C@H](CCCNC(=N)N)NC(=O)[C@H](CCCNC(=N)N)NC(=O)[C@H](CO)NC(=O)[C@H](CC(=O)O)NC(=O)[C@H](CC(C)C)NC(=O)[C@H](Cc1ccc(O)cc1)NC(=O)[C@H](CCCCN)NC(=O)[C@H](CO)NC(=O)[C@H](CC(C)C)NC(=O)[C@H](CC(=O)O)NC(=O)[C@H](CO)NC(=O)[C@@H](NC(=O)[C@H](Cc1ccccc1)NC(=O)[C@@H](NC(=O)CNC(=O)[C@H](CCC(N)=O)NC(=O)C(C)(C)NC(=O)[C@@H](N)Cc1c[nH]cn1)[C@@H](C)O)[C@@H](C)O)C(C)C)C(=O)N[C@@H](CO)C(=O)N[C@@H](CCCCNC(=O)CC[C@H](NC(=O)CC[C@H](NC(=O)COCCOCCNC(=O)COCCOCCNC(=O)CC[C@H](NC(=O)CCCCCCCCCCCCCCCCC(=O)O)C(=O)O)C(=O)O)C(=O)O)C(N)=O
For B3, in assay [1], the “EC50 GlucR” value worked out at 109 pM. Moreover, the “EC50 GLP-1R” value in assay [2] was 5 pM.

B4: N^ε28-[(4S)-4-carboxy-4-[[(4S)-4-carboxy-4-[[2-[2-[2-[[2-[2-[2-[[(4S)-4-carboxy-4-(17-carboxyheptadecanoylamino)butanoyl]amino]ethoxy]ethoxy]acetyl]amino]ethoxy … (peptide)
peptide: H[Aib]HGTFTSDLSKYLESKRAREFVQWLLK([γGlu-γGlu-AEEA-AEEA-γGlu-C18 diacid])T-NH2
modifications: N-terminus assumed
SMILES: CC(C)C[C@H](NC(=O)[C@H](Cc1ccc(O)cc1)NC(=O)[C@H](CCCCN)NC(=O)[C@H](CO)NC(=O)[C@H](CC(C)C)NC(=O)[C@H](CC(=O)O)NC(=O)[C@H](CO)NC(=O)[C@@H](NC(=O)[C@H](Cc1ccccc1)NC(=O)[C@@H](NC(=O)CNC(=O)[C@H](Cc1c[nH]cn1)NC(=O)C(C)(C)NC(=O)[C@@H](N)Cc1c[nH]cn1)[C@@H](C)O)[C@@H](C)O)C(=O)N[C@@H](CCC(=O)O)C(=O)N[C@@H](CO)C(=O)N[C@@H](CCCCN)C(=O)N[C@@H](CCCNC(=N)N)C(=O)N[C@@H](C)C(=O)N[C@@H](CCCNC(=N)N)C(=O)N[C@@H](CCC(=O)O)C(=O)N[C@@H](Cc1ccccc1)C(=O)N[C@H](C(=O)N[C@@H](CCC(N)=O)C(=O)N[C@@H](Cc1c[nH]c2ccccc12)C(=O)N[C@@H](CC(C)C)C(=O)N[C@@H](CC(C)C)C(=O)N[C@@H](CCCCNC(=O)CC[C@H](NC(=O)CC[C@H](NC(=O)COCCOCCNC(=O)COCCOCCNC(=O)CC[C@H](NC(=O)CCCCCCCCCCCCCCCCC(=O)O)C(=O)O)C(=O)O)C(=O)O)C(=O)N[C@H](C(N)=O)[C@@H](C)O)C(C)C
As for B4, the “EC50 GlucR” value in assay [1] was 1.1 pM.

B5: N^ε28-[(4S)-4-carboxy-4-[[(4S)-4-carboxy-4-[[(4S)-4-carboxy-4-(17-carboxyheptadecanoylamino)butanoyl]amino]butanoyl]amino]butanoyl]-[Aib2,His3,Leu10,Glu15,Lys17 … (peptide)
peptide: H[Aib]HGTFTSDLSKYLESKRAREFVQWLLK([γGlu-γGlu-γGlu-C18 diacid])T-NH2
modifications: N-terminus assumed
SMILES: CC(C)C[C@H](NC(=O)[C@H](Cc1ccc(O)cc1)NC(=O)[C@H](CCCCN)NC(=O)[C@H](CO)NC(=O)[C@H](CC(C)C)NC(=O)[C@H](CC(=O)O)NC(=O)[C@H](CO)NC(=O)[C@@H](NC(=O)[C@H](Cc1ccccc1)NC(=O)[C@@H](NC(=O)CNC(=O)[C@H](Cc1c[nH]cn1)NC(=O)C(C)(C)NC(=O)[C@@H](N)Cc1c[nH]cn1)[C@@H](C)O)[C@@H](C)O)C(=O)N[C@@H](CCC(=O)O)C(=O)N[C@@H](CO)C(=O)N[C@@H](CCCCN)C(=O)N[C@@H](CCCNC(=N)N)C(=O)N[C@@H](C)C(=O)N[C@@H](CCCNC(=N)N)C(=O)N[C@@H](CCC(=O)O)C(=O)N[C@@H](Cc1ccccc1)C(=O)N[C@H](C(=O)N[C@@H](CCC(N)=O)C(=O)N[C@@H](Cc1c[nH]c2ccccc12)C(=O)N[C@@H](CC(C)C)C(=O)N[C@@H](CC(C)C)C(=O)N[C@@H](CCCCNC(=O)CC[C@H](NC(=O)CC[C@H](NC(=O)CC[C@H](NC(=O)CCCCCCCCCCCCCCCCC(=O)O)C(=O)O)C(=O)O)C(=O)O)C(=O)N[C@H](C(N)=O)[C@@H](C)O)C(C)C
Regarding B5, the “EC50 GlucR” value in assay [1] was determined as 2.9 pM.
